The results in this text go back to the Human Domainome abundance scans (Beltran et al. 2025).

± gives the uncertainty stated by the source.

Sequences and labels used below:
B1: Chromodomain-helicase-DNA-binding protein 5, residues 411 to 463; numbered along this chain, Q8TDI0 (parent)
chain: EEDDHMEFCRVCKDGGELLCCDACPSSYHLHCLNPPLPEIPNGEWLCPRCTCP

Variants of B1 are the subject of the data set. As to the kind of experiment: abundance fitness (aPCA) (normalised: wild type 0, dead -1); higher = more abundant; growth selection in yeast, the domain comes from the species named. Conditions: Homo sapiens.
Regarding L33H, the abundance fitness was -0.706 ± 0.21.
As for L33W, the abundance fitness is -0.594 ± 0.064.
With L33N the figure was -0.971 ± 0.19; with L33I, 0.252 ± 0.082.
In the case of L33S it was -0.487 ± 0.061; in that of L33E, -0.452 ± 0.074; in that of L33D, -0.344 ± 0.1.
With L33V the figure was -0.04 ± 0.055; with L33M, -0.235 ± 0.095.
L33P: the abundance fitness is -0.496 ± 0.11.
With L33C the figure was -0.125 ± 0.084.
For L33Q, the abundance fitness is -0.484 ± 0.086.
Consider L33A, for which the abundance fitness is -0.171 ± 0.046.
Take L33Y: the abundance fitness is -0.482 ± 0.12.
With L33T the figure was -0.198 ± 0.049; with L33F, -0.209 ± 0.093.
In the case of L33G it was -0.554 ± 0.058; in that of L37H, 0.268 ± 0.094; in that of L37Y, -0.109 ± 0.07.
L37W: the abundance fitness was -0.109 ± 0.049.
With L37E the figure was -0.041 ± 0.099; with L37R, -0.006 ± 0.049.
With L37Q the figure was -0.028 ± 0.1; with L37N, -0.229 ± 0.18; with L37I, -0.023 ± 0.096.
With L37T the figure was -0.005 ± 0.071; with L37K, -0.201 ± 0.1.
For the variant L37S, the abundance fitness was 0.023 ± 0.074.
In the case of L37C it was -0.299 ± 0.098.
In the case of L37A it was 0.031 ± 0.043.
For the variant L37V, the abundance fitness was -0.135 ± 0.079.
Regarding L37G, the abundance fitness was -0.232 ± 0.063.
In the case of L37F it was -0.21 ± 0.12; in that of L37P, -0.113 ± 0.077; in that of L37M, -0.262 ± 0.098.
Turning to I40Y, the abundance fitness is -0.059 ± 0.33.
As for I40P, the abundance fitness was 0.052 ± 0.079.
Regarding I40S, the abundance fitness was -0.058 ± 0.13.
On to I40G, for which the abundance fitness is -0.09 ± 0.098.
For I40T, the abundance fitness was 0.113 ± 0.13.
With I40R the figure was -0.121 ± 0.097; with I40D, -0.534 ± 0.35; with I40V, -0.027 ± 0.11.
For the variant I40W, the abundance fitness is -0.633 ± 0.39.
For the variant I40A, the abundance fitness was -0.206 ± 0.12.
In the case of I40H, the abundance fitness was -0.151 ± 0.24.
Take I40M: the abundance fitness was -0.112 ± 0.14.
With I40N the figure was 0.063 ± 0.14; with I40C, 0.116 ± 0.1; with I40K, -0.104 ± 0.18.
For I40E, the abundance fitness is -0.129 ± 0.11.
As to I40L, the abundance fitness stood at 0.147 ± 0.086.
In the case of I40Q, the abundance fitness amounted to 0.132 ± 0.12.
Regarding E44Q, the abundance fitness was found to be 0.041 ± 0.053.
E44S: the abundance fitness worked out at 0.031 ± 0.059.
With E44N the figure was -0.083 ± 0.09.
In the case of E44I it was -0.156 ± 0.1; in that of E44K, 0.102 ± 0.071; in that of E44C, -0.026 ± 0.068.
Consider E44F, for which the abundance fitness was -0.361 ± 0.085.
In the case of E44P it was -0.071 ± 0.063; in that of E44V, -0.105 ± 0.04.
With E44D the figure was 0.051 ± 0.061; with E44H, 0.056 ± 0.073; with E44A, -0.095 ± 0.048.
For the variant E44M, the abundance fitness is -0.312 ± 0.075.
With E44L, the abundance fitness is -0.186 ± 0.058.
With E44G the figure was -0.027 ± 0.045; with E44T, 0.02 ± 0.056.
In the case of E44Y it was -0.232 ± 0.081.
In the case of P36N it was -0.591 ± 0.32; in that of P36C, -0.084 ± 0.088; in that of P36S, -0.023 ± 0.066.
On to P36V, for which the abundance fitness worked out at 0.066 ± 0.088.
In the case of P36H it was -0.211 ± 0.15; in that of P36F, -0.091 ± 0.12.
Regarding P36M, the abundance fitness was -0.026 ± 0.082.
In the case of P36I it was 0.125 ± 0.12; in that of P36Q, 0.089 ± 0.1; in that of P36A, 0.099 ± 0.08.
In the case of P36L, the abundance fitness is -0.215 ± 0.055.
Turning to P36G, the abundance fitness is -0.169 ± 0.06.
For P36K, the abundance fitness was found to be 0.088 ± 0.11.
In the case of P36Y it was -0.838 ± 0.22; in that of P36E, -0.194 ± 0.1.
With P36D the figure was -0.068 ± 0.048; with H29M, -0.87 ± 0.15; with H29W, -1.25 ± 0.26.
H29G: the abundance fitness was -0.825 ± 0.063.
As for H29K, the abundance fitness was -1.06 ± 0.25.
In the case of H29I it was -1.2 ± 0.49; in that of H29R, -0.741 ± 0.062; in that of H29T, -1.14 ± 0.41.
In the case of H29C it was -0.164 ± 0.082; in that of H29L, -0.528 ± 0.076.
In the case of H29P it was -0.732 ± 0.15; in that of H29V, -0.882 ± 0.11.
Consider H29Y, for which the abundance fitness is -0.652 ± 0.26.
With H29F, the abundance fitness is -0.765 ± 0.27.
In the case of H29S it was -0.825 ± 0.14.
In the case of L46T it was -0.102 ± 0.058; in that of L46V, -0.017 ± 0.054.
With L46N the figure was 0.294 ± 0.12.
On to L46E, for which the abundance fitness is -0.025 ± 0.054.
In the case of L46I, the abundance fitness was determined as 0.116 ± 0.093.
With L46A the figure was -0.027 ± 0.07; with L46Y, -0.115 ± 0.093.
For L46K, the abundance fitness came to 0.079 ± 0.089.
With L46D the figure was -0.65 ± 0.19; with L46S, 0.061 ± 0.059.
For L46C, the abundance fitness is 0.088 ± 0.096.
Regarding L46F, the abundance fitness is 0.101 ± 0.091.
Consider L46H, for which the abundance fitness was -0.152 ± 0.11.
L46P: the abundance fitness is -0.559 ± 0.12.
In the case of L46Q it was -0.063 ± 0.12.
In the case of L46M it was -0.188 ± 0.082.
In the case of L46W it was -0.155 ± 0.083; in that of L46G, -0.502 ± 0.081; in that of L46R, -0.034 ± 0.06.
In the case of L30I, the abundance fitness is -0.002 ± 0.045.
With L30D the figure was -0.013 ± 0.075; with L30R, -0.018 ± 0.049; with L30W, -0.201 ± 0.049.
With L30E the figure was -0.142 ± 0.078; with L30A, 0.072 ± 0.061.
With L30G the figure was 0.002 ± 0.048; with L30Q, 0.016 ± 0.063.
In the case of L30N, the abundance fitness is -0.04 ± 0.044.
With L30K the figure was -0.043 ± 0.071.
With L30C the figure was -0.038 ± 0.063; with L30P, 0.087 ± 0.057.
In the case of L30Y it was -0.019 ± 0.08; in that of L30M, 0.137 ± 0.062; in that of L30F, -0.06 ± 0.044.
Turning to L30S, the abundance fitness was determined as 0.02 ± 0.055.
In the case of L30V it was 0.019 ± 0.042; in that of P35N, -0.172 ± 0.096.
With P35F the figure was -0.24 ± 0.049; with P35W, -0.404 ± 0.052.
With P35I the figure was -0.183 ± 0.068; with P35C, -0.371 ± 0.078.
With P35H, the abundance fitness was -0.353 ± 0.1.
In the case of P35E it was 0.034 ± 0.079; in that of P35G, -0.182 ± 0.046.
For the variant P35D, the abundance fitness is -0.246 ± 0.079.
With P35Y the figure was -0.476 ± 0.099; with P35L, -0.315 ± 0.071; with P35A, -0.299 ± 0.057.
For P35Q, the abundance fitness is -0.12 ± 0.063.
On to P35S, for which the abundance fitness was -0.23 ± 0.06.
With P35V the figure was -0.145 ± 0.07; with C47G, -0.533 ± 0.074.
In the case of C47K it was -0.848 ± 0.21; in that of C47R, -0.737 ± 0.058; in that of C47M, -0.906 ± 0.17.
With C47A the figure was -0.542 ± 0.077; with C47H, -0.235 ± 0.2.
As for C47P, the abundance fitness is -0.899 ± 0.085.
In the case of C47F it was -0.318 ± 0.12; in that of C47E, -0.853 ± 0.14; in that of C47T, -0.551 ± 0.12.
In the case of C47L it was -0.716 ± 0.052; in that of C47Q, -0.192 ± 0.11; in that of C47S, -0.653 ± 0.048.
As to C47N, the abundance fitness is -0.285 ± 0.17.
As for C47D, the abundance fitness was -0.678 ± 0.15.
With C47I the figure was -0.009 ± 0.15.
